From patent US20150191515A1 (SYNTHETIC GENOMICS, published 2015) come the findings set out here.

Test [1] deals with T1, Hap-1742 (HapY), non-LEC1-type HAP3-like / NF-YB subunit of a CCAAT-box binding factor from Nannochloropsis … (Nannochloropsis gaditana).
T1 construct: also called Nannochloropsis NF-YB polypeptide
T1 chain: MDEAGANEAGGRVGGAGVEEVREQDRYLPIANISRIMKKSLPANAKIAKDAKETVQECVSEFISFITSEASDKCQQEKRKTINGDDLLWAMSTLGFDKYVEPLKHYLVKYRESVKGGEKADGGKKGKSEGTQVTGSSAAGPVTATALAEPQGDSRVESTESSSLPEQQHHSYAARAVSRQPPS
The test is described as follows: yeast two hybrid, NF-YA-1257 prey strain mated with Hap-1742 bait strain.

Test [2] addresses T1, Hap-1742 (HapY), non-LEC1-type …. As to the kind of experiment: yeast two hybrid screen, Hap-1742 bait against Nannochloropsis cDNA prey library. As to the method:
Based on these numbers, it is estimated that more than 10 million interactions were tested.

B1: NF-YA-1257 (EUKT1257), Nannochloropsis NF-Y subunit A (other)
chain: MDGAETGSGGDSDSGGGRKKIVRPCSSAETSLSMDVTATSYQGTNFNHMLSHGAPASAMVETHDGEGSLCPFPFQPPPHQQHNLQYQQPQEHQMQQTYYGQMNDDGNNFYDHSPHMEGFEPLGAPQEAAGSDLGPQPIFVNPKQYERIMKRREARARLENHRKIAAERKPFLHKSRHLHAVKRPRGPGGRFLTKEERIAWDEEQAQLEGTSTMGAVHVSNEVAAKTLYSSAQASIAAGPPLASQQGSRHASPPFSSPLSSSSCLPPSASTPVAPSGPSSYCSSSPII
notes: The open reading frame was cloned into prey vector pGADT7 (Clontech) and expressed in yeast strain Y2HGold; also called CBF-B/NF-YA
For B1, the binding result in test [1] is on record as “binds”.

B2: EUKT6092, Nannochloropsis NF-YC polypeptide (other)
chain: MSGASGNGANPAVQQPYIPTDAEQAEHLQNLIRKLKDFWVEQLAEMETLSLASEQDFKNYIDLPLARIKRIMKSDEDVHMISAEVLVLFAKACEMFILELTIRSWCYSERSKRRTLQREDIQAAIANADILDFLVNIV
notes: Yeast two hybrid prey clone from a cDNA library in pGADT7-rec (Clontech), in yeast strain Y2HGold; also called NF-Y C subunit; HAP5 polypeptide
Regarding B2, the binding result in test [2] is listed as “binds”.

B3: EUKT1490, Nannochloropsis NF-YC polypeptide (other)
chain: MRLYRQIKKASMSRSPEVLQTSNSALSYASPSQAPSGAAIMMPTAPALPGRSTNTPNTQTGTEERKRDTPEGPKPSPLAGTPASMKAEEAPVSSKKARNAPIPPLSTSNAYVTEDTTLAIPRASIKRIMKLDPDTKQLSQDAIMVMAKATELFIDKLAKASHSMAVTNKRKTIKYEDIADARFSQKNMEFLDGVVPQIP
notes: as for B2
For the molecule B3, the binding result in test [2] is “binds”.
